Assay results as given in publication PMC3991884, “Trehalose synthesis in Aspergillus niger: characterization of six homologous genes, all with conserved orthologs in related species” (BMC Microbiology, 2014).

B1: TpsB (natural protein, Aspergillus niger, UniProt Q00217 1-480, looked up)
chain: MAANGSSSEGDHRLLIVSNRLPITIRRSGGGKYEFSMSSGGLVTGLSGLSKTTTFQWYGWPGLEVPEDEIDSVKQRLQEEFNATPVFMDDKLADRHYNGFSNSILWPLLHYHPGEIVFDEAAWDAYREANRLFAKTIAHEAREGDLVWVHDYHLMLLPEVLREELAALGKNNIRIGFFLHTPFPSSEIYRILPVRSQLLRGVLQCDLIGFHTYDYARHFLSCCSHILGLVTTPSSVKFKDRSVAVGAFPIGIDPDKFTEGLKSPKVQNRIASLENKFQGTKLMVSVDRLDYIKGIPQKLHALEVFLSQHPEWVGKVVLVQVAVPSRQDVEEYQNLRAVVNELVGRINGKFGTVDYMPIHFMHKSVSFDELIALYAASDACVVSSTRDGMNLVSFEYVATQQKRKGVLILSEFAGAAQSLNGSIVVNPWNTEELASAYHEAVSMSDDLRAQKFEKLYKYISKYTSAFWGKSFVAELSKCST
notes: TpsB, putative trehalose-6-phosphate synthase of Aspergillus niger (Tps1 ortholog), gene tpsB, ANI_1_1078064; full-length cDNA / open reading frame; Cloned into both vectors; each fusion carries one of the two fragments (T25 or T18), not both; also called tpsB gene product; trehalose-6-phosphate synthase TpsB; source: bacterial two-hybrid fusion (pKT25 and pUT18C), in E. coli BTH101
B2: TpsA (natural protein, Aspergillus niger, UniProt Q00075 1-517, looked up)
chain: MPSLENPTFQNEARLLLVSNRLPITIKRSDDGRYDFSMSSGGLVSGLSGLSKSTTFQWYGWPGLEVPEEEIPVVKERLKQEYNAVPVFIDDELADRHYNGFSNSILWPLFHYHPGEITFDESAWEAYKEANRLFAKAVAKEVQDGDLIWVHDYHLMLLPEMLREEIGDSKENVKIGFFLHTPFPSSEIYRILPVRNELLLGVLHCDLIGFHTYDYTRHFLSACSRLLGLTTTPNGIEFQGKIIACGAFPIGIDPEKFEEGLKKEKVQKRIAMLEQKFQGVKLMVGVDRLDYIKGVPQKLHALEVFLSDHPEWVGKVVLVQVAVPSRQDVEEYQNLRAVVNELVGRINGKFGTVEFMPIHFLHKSVNFDELIALYAVSDACIVSSTRDGMNLVAYEYIATQKKRHGVLVLSEFAGAAQSLNGSIIINPWNTEELAGAYQEAVTMSDEQRALNFSKLDKYVNKYTSAFWGQSFVTELTRISEHSAEKFHAKKASFSDNNSENGEPSNGVETPAQEQVAQ
notes: TpsA, putative trehalose-6-phosphate synthase of Aspergillus niger (Tps1 ortholog), gene tpsA, ANI_1_1406074; full-length cDNA / open reading frame; Cloned into both vectors; each fusion carries one of the two fragments (T25 or T18), not both. cDNA from A. niger N402 background; also called tpsA gene product; trehalose-6-phosphate synthase TpsA; source: bacterial two-hybrid fusion (pKT25 and …)

How the values were obtained:
Test in all cases: two-hybrid; bacterial adenylate cyclase two-hybrid (BACTH System Kit); pKT25 and pUT18C fusions co-transformed into E. coli BTH101; LB with ampicillin, kanamycin and 0.5 mM IPTG, 100 rpm, 20°C, 72 h; β-galactosidase assay as units/mg dry weight; three to four independent assays
[1] = target: B1
[2] = target: TpsC (Aspergillus niger)
[3] = target: the molecule itself
[4] = target: B2; details: partners not purified
[5] = target: TppA (Aspergillus niger)

Molecule | β-galactosidase activity (two-hybrid) (units/mg dry weight bacteria) [1] | β-galactosidase activity (two-hybrid) (units/mg dry weight bacteria) [2] | β-galactosidase activity (two-hybrid) [3] | β-galactosidase activity (two-hybrid) [4] | β-galactosidase activity (two-hybrid) (units/mg dry weight bacteria) [5] | β-galactosidase activity (two-hybrid) ([1]; partners not purified)
TppA (natural protein) | 691 |  |  |  |  | 
TpsC (natural protein) | 688 | 1210 |  |  |  | 
B1 |  | 441 | 1780 units/mg dry weight bacteria | 1590 units/mg dry weight bacteria | 581 | 
B2 |  |  | 418 units/mg dry weight bacteria |  |  | 1750 units/mg dry weight bacteria
